# Read-outs that look alike come from different tables or passages of the source.
# T1: recombinant human chymase (Homo sapiens, UniProt P23946)
# T1 construct: made in house; host or cells: Escherichia coli (XL1-Blue)
# T1 sequence (P23946 22-247): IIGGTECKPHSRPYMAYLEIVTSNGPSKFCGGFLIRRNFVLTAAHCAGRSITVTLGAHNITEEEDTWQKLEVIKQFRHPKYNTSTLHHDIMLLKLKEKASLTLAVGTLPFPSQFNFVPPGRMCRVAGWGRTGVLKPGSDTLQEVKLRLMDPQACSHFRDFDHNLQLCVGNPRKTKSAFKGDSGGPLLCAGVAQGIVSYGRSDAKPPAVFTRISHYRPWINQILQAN
# B1: MBP-chymase: catalytic domain of human mast cell chymase fused to the maltose binding protein of Escherichia coli, wild type chymase amino acid sequence (protein)
# chain: IEGRIIGGTECKPHSRPYMAYLEIVTSNGPSKFCGGFLIRRNFVLTAAHCAGRSITVTLGAHNITEEEDTWQKLEVIKQFRHPKYNTSTLHHDIMLLKLKEKASLTLAVGTLPFPSQFNFVPPGRMCRVAGWGRTGVLKPGSDTLQEVKLRLMDPQACSHFRDFDHNLQLCVGNPRKTKSAFKGDSGGPLLCAGVAQGIVSYGRSDAKPPAVFTRISHYRPWINQILQAN
# B2: SBTI: soybean trypsin inhibitor (protein)
# chain: DFVLDNEGNPLENGGTYYILSDITAFGGIRAAPTGNERCPLTVVQSRNELDKGIGTIISSPYRIRFIAEGHPLSLKFDSFAVIMLCVGIPTEWSVVEDLPEGPAVKIGENKDAMDGWFRLERVSDDEFNNYKLVFCPQQAEDDKCGDIGISIDHDDGTRRLVVSKNKPLVVQFQKLDKESL
# B3: Chymase: serine protease with chymotrypsin-like substrate specificity of mast cells (protein)
# chain: IIGGTECKPHSRPYMAYLEIVTSNGPSKFCGGFLIRRNFVLTAAHCAGRSITVTLGAHNITEEEDTWQKLEVIKQFRHPKYNTSTLHHDIMLLKLKEKASLTLAVGTLPFPSQFNFVPPGRMCRVAGWGRTGVLKPGSDTLQEVKLRLMDPQACSHFRDFDHNLQLCVGNPRKTKSAFKGDSGGPLLCAGVAQGIVSYGRSDAKPPAVFTRISHYRPWINQILQAN
# B4: recombinant human chymase: enzymatically active, recombinant human chymase released by Factor Xa cleavage of the refolded fusion protein (protein)
# chain: IIGGTECKPHSRPYMAYLEIVTSNGPSKFCGGFLIRRNFVLTAAHCAGRSITVTLGAHNITEEEDTWQKLEVIKQFRHPKYNTSTLHHDIMLLKLKEKASLTLAVGTLPFPSQFNFVPPGRMCRVAGWGRTGVLKPGSDTLQEVKLRLMDPQACSHFRDFDHNLQLCVGNPRKTKSAFKGDSGGPLLCAGVAQGIVSYGRSDAKPPAVFTRISHYRPWINQILQAN
# B5: Free chymase: Free chymase, released by Factor Xa cleavage of the fusion protein (protein)
# chain: IIGGTECKPHSRPYMAYLEIVTSNGPSKFCGGFLIRRNFVLTAAHCAGRSITVTLGAHNITEEEDTWQKLEVIKQFRHPKYNTSTLHHDIMLLKLKEKASLTLAVGTLPFPSQFNFVPPGRMCRVAGWGRTGVLKPGSDTLQEVKLRLMDPQACSHFRDFDHNLQLCVGNPRKTKSAFKGDSGGPLLCAGVAQGIVSYGRSDAKPPAVFTRISHYRPWINQILQAN
# What was measured:
# human heart chymase = conditions: none = 100, cited from earlier work
# [1] = biological target: T1, recombinant human chymase; assay: Inhibitor profile of recombinant human chymase (residual activity, chromogenic substrate); type: biochemical; conditions: none = 100
# Method: (§1) Assays for chymase activity were carried out in cuvettes, which contained, in 1 ml, 80 μg of the chromogenic substrate succinyl-L-PheProPhe-p-nitroanilide in 30 mM Tris-HCl, pH 8.0, 1M NaCl. Samples were placed in a spectrophotometer and set to zero absorbance. The assay was initiated by mixing in approximately 10 μg of protein and absorbance at 405 nm was monitored as a function of time. Chymase activity was determined from the specific activity (110 absorbance units/mg/min at 37° C.; Caughey et al., 1988, Bioch. Biophys. Acta 952:142-149) and the slope of the absorbance vs. time plot.
# (§2) MBP-chymase fusion protein, recovered in the insoluble fraction from cell extracts, was resuspended in lysis buffer containing β-mercaptoethanol and 8M urea. After sonication to completely resuspend the pellet, the sample was dialyzed against 10 mM sodium phosphate buffer, pH 7.2 overnight. Insoluble material was removed by centrifugation and the fusion protein was then purified by amylose affinity chromatography as above. The fusion protein was eluted from the resin with maltose and dialyzed against 20 mM Tris-HCl, pH 8.0, 100 mM NaCl. The protein was then exchanged into reducing buffer #1 (0.1M Tris-HCl, pH 8.7, 1 mM EDTA, 6M guanidine-HCl, 0.15M NaCl, 0.3 M reduced glutathione) and incubated at room temperature for 2 hours. The sample was diluted 100-fold into oxidizing buffer #2 (0.1 Tris-HCl, pH 8.0, 1 mM EDTA, 0.15M NaCl, 0.3 mM oxidized glutathione), stirred for 2-48 hr at room temperature, and concentrated 100-fold to 285 μg/ml by ultrafiltration using an Amicon stirred flow cell. Factor Xa cleavage reactions were carried out at room temperature overnight. Ten μl samples were periodically removed and assayed for chymase activity in the presence or absence of various proteinase inhibitors. Several control experiments were also performed as described below.
# [2] = Assay for chymase proteolytic activity on chromogenic substrate; type: biochemical; conditions: for proteolytic activity on chromogenic substrate: not refolded, chymase substrate succinyl-L-PheProPhe-p-nitroanilide; for activity released by Factor Xa: refolded fusion protein
# Method: as §1, §2
# Chymase = conditions: general statement, no concentration; cited from earlier work
# [3] = at 37° C.; Caughey et al., 1988; cited from earlier work
# [4] = tested on: airway submucosal gland cells; conditions: cited from earlier work
molecule,measurement,setting,value
"CC(=O)N[C@@H](CC(C)C)C(=O)N[C@@H](CC(C)C)C(=O)N[C@H](C=O)CCCNC(=N)N [LEU, leupeptin]","% Residual Activity, Heart Chymase",human heart chymase; 10 μM inhibitor,106%
same,remaining activity at 10 µM,"[1]; 10 μM inhibitor, read-out: % Residual Activity, Recombinant Enzyme",100%
"O=S(=O)(F)Cc1ccccc1 [PMSF, phenylmethylsulfonyl fluoride]","% Residual Activity, Heart Chymase",human heart chymase; 1 mM inhibitor,0%
same,"% Residual Activity, Recombinant Enzyme",[1]; 1 mM inhibitor,0%
"Cc1ccc(S(=O)(=O)N[C@@H](Cc2ccccc2)C(=O)CCl)cc1 [TPCK, ptosyl-L-phenylalanine chloromethyl ketone]","% Residual Activity, Heart Chymase",human heart chymase; 1 mM inhibitor,30%
same,remaining activity at 100 µM,"[1]; 100 μM inhibitor, read-out: % Residual Activity, Recombinant Enzyme",0%
B1,enzymatic activity on the chymase substrate (control experiments),"[2]; Factor Xa alone, or fusion protein in the absence of Factor Xa",did not result in detectable enzymatic activity
same,proteolytic activity on chromogenic substrate,[2],no detectable proteolytic activity
B2,"% Residual Activity, Heart Chymase",human heart chymase; 1 μM inhibitor,0%
same,"% Residual Activity, Heart Chymase",human heart chymase; 100 μM inhibitor,0%
same,inhibition of chymase,Chymase,inhibited
same,"% Residual Activity, Recombinant Enzyme",[1]; 25 μM inhibitor,0%
B3,specific activity,[3],110 absorbance units/mg/min
same,secretagogue activity,[4],extremely potent secretagogue
B4,enzymatic activity of released recombinant human chymase,"[2]; refolded fusion protein cleaved by Factor Xa, hydrolysis of the chymase substrate",enzymatically active
same,activity released by Factor Xa,[2]; at 2 hours,2.7 µg/mL
same,activity released by Factor Xa,"[2]; at 5 hours, remained at this level for up to 24 hours",4.6 µg/mL
B5,proteolytic activity on chromogenic substrate,[2],inactive as a protease

# Reference: patent US5567602A, “Recombinant production of chymase” (Arris Pharmaceutical Corporation, priority 1992, dated 1996)
